Assay results as given in patent US20090192084A1.

Assays:
[1] = target: BTB/POZ domain-containing protein 2. BTBD2 (human) (UniProt Q9BX70); test: Flag co-IP, MudPIT MS, DMSO
Cullin 1 (human) [2] = target: Cullin 1 (human) (UniProt Q13616); test: Flag co-IP, MudPIT MS, DMSO
[3] = target: Kelch repeat and BTB domain-containing protein 7, KBTB7 (human) (UniProt Q8WVZ9); test: Flag co-IP, MudPIT MS, DMSO
[4] = target: RING finger protein 12. RLIM (human) (UniProt Q9NVW2); test: Flag co-IP, MudPIT MS, DMSO
[5] = target: Ubiquitin conjugation factor E4 B, UBE4B (Ufd2ortholog) (human) (UniProt O95155); test: Flag co-IP, MudPIT MS, DMSO
Cullin 1 (human) [6] = target: Cullin 1 (human) (UniProt Q13616); test: Flag co-IP, MudPIT MS, MG132
Praja 2 (human) = Praja 2 (human) (UniProt O43164); test: Flag co-IP, MudPIT MS, MG132
[7] = target: Bromodomain and WD-repeat domain-containing protein 1. WDR9 (human) (UniProt Q9NSI6); test: Flag co-IP, MudPIT MS, DMSO
[8] = target: Bromodomain and WD-repeat domain-containing protein 2, WDR 1 I (human) (UniProt Q9BZH6); test: Flag co-IP, MudPIT MS, DMSO
[9] = target: Bromodomain and WD-repeat domain-containing protein 3, BRWD3 (human) (UniProt Q6RI45); test: Flag co-IP, MudPIT MS, DMSO
Cullin 4A (human) = Cullin 4A (human) (UniProt Q13619); test: Flag co-IP, MudPIT MS, DMSO
Cullin 4B (human) = Cullin 4B (human) (UniProt Q13620); test: Flag co-IP, MudPIT MS, DMSO
Elongin B (human) = Elongin B (human) (UniProt Q15370); test: Flag co-IP, MudPIT MS, DMSO
[10] = target: Kelch domain-containing protein 2, KLDC2 (human) (UniProt Q9Y2U9); test: Flag co-IP, MudPIT MS, DMSO
SKP1 (human) = SKP1 (human) (UniProt P63208); test: Flag co-IP, MudPIT MS, DMSO
Cullin 3 (human) = Cullin 3 (human) (UniProt Q13618); test: Flag co-IP, MudPIT MS, MG132
[11] = target: Kelch-like protein 22. KLEIL22 (human) (UniProt Q53GT1); test: Flag co-IP, MudPIT MS, MG132
[12] = target: Von Hippel-Lindau disease tumor suppressor, VHL (human) (UniProt P40337); test: Flag co-IP, MudPIT MS, MG132
Elongin C (human) = Elongin C (human) (UniProt Q15369); test: Flag co-IP, MudPIT MS, DMSO
[13] = target: Galectin-3 binding protein. LG3BP (human) (UniProt Q08380); test: Flag co-IP, MudPIT MS, DMSO
[14] = target: WD repeat protein Anti homolog. WDR68 (human) (UniProt P61962); test: Flag co-IP, MudPIT MS, DMSO
[15] = target: Galectin-3 binding protein. LG3BP (human) (UniProt Q08380); test: Flag co-IP, MudPIT MS, MG132
endogenous UFD1 (human) = target: T1, endogenous UFD1 (human) (UniProt Q92890); test: Flag co-IP, 293 cells, MudPIT MS
T1 sequence (looked up): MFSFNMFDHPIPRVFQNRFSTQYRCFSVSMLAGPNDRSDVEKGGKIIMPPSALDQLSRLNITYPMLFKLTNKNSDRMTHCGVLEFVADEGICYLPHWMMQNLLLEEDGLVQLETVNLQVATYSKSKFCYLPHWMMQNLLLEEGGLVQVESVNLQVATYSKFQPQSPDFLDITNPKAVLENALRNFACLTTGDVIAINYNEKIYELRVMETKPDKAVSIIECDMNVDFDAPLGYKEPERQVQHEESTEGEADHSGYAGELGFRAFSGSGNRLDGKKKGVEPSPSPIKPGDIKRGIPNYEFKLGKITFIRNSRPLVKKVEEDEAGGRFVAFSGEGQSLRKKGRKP

Bromodomain and WD-repeat domain-containing protein 2, WDR 1 I (human), sequence (Q9BZH6 whole entry, the tested form may be a part): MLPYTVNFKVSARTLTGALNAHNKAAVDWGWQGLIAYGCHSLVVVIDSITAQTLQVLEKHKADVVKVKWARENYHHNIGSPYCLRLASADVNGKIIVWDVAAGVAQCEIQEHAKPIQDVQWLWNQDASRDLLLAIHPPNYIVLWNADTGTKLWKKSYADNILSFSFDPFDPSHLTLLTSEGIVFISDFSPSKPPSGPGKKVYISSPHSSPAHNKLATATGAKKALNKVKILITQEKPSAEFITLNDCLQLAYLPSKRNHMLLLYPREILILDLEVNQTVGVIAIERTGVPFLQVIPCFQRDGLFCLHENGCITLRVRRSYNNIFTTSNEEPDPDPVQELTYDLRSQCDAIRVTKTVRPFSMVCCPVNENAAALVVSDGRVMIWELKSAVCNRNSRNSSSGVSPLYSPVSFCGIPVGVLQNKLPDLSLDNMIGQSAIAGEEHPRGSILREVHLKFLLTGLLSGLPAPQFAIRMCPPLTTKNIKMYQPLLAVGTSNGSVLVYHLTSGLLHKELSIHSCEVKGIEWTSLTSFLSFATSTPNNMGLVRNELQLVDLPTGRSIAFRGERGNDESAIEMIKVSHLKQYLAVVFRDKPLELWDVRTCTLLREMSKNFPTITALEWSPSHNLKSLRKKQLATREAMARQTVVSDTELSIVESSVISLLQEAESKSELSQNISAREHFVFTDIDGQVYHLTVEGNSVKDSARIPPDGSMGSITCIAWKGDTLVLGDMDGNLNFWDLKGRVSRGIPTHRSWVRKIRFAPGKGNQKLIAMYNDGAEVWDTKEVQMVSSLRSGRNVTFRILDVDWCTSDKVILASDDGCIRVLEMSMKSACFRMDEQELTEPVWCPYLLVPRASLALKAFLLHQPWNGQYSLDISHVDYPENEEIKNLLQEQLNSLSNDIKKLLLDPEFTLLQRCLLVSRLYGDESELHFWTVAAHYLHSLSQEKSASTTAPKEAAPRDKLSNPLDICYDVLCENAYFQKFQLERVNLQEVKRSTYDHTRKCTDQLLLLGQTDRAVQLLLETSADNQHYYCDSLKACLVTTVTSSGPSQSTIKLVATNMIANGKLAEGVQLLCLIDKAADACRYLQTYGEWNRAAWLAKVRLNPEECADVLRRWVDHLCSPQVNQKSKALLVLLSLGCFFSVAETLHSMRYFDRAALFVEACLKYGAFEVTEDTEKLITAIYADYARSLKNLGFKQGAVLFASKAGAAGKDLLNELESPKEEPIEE
Cullin 3 (human), sequence (Q13618 2-768 limits assumed): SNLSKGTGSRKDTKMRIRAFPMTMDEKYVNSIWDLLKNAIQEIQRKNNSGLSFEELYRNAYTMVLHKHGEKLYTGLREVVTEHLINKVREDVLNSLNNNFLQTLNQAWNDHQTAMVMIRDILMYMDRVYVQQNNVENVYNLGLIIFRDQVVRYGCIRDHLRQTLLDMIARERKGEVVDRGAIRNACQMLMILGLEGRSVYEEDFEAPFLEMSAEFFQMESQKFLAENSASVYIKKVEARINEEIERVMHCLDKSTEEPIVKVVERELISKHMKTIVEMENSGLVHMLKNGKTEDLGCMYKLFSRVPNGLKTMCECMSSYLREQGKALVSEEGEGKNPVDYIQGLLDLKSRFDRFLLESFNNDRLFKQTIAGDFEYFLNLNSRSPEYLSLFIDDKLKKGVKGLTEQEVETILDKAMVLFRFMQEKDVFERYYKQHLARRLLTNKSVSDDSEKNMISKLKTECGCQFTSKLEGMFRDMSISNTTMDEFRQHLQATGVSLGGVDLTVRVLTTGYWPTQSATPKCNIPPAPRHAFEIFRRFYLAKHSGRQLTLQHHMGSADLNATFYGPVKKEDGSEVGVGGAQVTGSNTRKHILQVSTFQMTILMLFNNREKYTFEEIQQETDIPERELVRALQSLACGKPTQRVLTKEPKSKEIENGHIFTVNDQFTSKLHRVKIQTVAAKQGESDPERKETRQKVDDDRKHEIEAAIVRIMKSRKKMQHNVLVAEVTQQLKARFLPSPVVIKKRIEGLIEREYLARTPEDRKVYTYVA
Kelch-like protein 22. KLEIL22 (human), sequence (Q53GT1 2-634 limits assumed): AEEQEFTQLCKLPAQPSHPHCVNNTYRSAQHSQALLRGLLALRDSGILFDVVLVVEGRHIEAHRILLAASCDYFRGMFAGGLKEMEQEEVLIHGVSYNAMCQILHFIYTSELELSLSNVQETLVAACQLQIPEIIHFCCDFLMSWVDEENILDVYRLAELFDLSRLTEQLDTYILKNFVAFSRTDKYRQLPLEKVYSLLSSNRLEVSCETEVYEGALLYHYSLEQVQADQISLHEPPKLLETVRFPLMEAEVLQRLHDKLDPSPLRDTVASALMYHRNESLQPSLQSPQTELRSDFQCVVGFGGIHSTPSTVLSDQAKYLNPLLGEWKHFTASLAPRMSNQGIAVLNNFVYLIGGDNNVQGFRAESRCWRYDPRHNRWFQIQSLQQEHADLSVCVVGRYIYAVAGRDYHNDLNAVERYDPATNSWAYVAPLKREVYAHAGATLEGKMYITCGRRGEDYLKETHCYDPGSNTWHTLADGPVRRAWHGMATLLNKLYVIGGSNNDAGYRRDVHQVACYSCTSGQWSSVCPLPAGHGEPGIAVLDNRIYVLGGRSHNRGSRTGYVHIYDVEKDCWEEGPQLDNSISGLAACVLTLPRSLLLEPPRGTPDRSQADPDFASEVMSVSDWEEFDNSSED
Bromodomain and WD-repeat domain-containing protein 3, BRWD3 (human), sequence (Q6RI45 whole entry, the tested form may be a part): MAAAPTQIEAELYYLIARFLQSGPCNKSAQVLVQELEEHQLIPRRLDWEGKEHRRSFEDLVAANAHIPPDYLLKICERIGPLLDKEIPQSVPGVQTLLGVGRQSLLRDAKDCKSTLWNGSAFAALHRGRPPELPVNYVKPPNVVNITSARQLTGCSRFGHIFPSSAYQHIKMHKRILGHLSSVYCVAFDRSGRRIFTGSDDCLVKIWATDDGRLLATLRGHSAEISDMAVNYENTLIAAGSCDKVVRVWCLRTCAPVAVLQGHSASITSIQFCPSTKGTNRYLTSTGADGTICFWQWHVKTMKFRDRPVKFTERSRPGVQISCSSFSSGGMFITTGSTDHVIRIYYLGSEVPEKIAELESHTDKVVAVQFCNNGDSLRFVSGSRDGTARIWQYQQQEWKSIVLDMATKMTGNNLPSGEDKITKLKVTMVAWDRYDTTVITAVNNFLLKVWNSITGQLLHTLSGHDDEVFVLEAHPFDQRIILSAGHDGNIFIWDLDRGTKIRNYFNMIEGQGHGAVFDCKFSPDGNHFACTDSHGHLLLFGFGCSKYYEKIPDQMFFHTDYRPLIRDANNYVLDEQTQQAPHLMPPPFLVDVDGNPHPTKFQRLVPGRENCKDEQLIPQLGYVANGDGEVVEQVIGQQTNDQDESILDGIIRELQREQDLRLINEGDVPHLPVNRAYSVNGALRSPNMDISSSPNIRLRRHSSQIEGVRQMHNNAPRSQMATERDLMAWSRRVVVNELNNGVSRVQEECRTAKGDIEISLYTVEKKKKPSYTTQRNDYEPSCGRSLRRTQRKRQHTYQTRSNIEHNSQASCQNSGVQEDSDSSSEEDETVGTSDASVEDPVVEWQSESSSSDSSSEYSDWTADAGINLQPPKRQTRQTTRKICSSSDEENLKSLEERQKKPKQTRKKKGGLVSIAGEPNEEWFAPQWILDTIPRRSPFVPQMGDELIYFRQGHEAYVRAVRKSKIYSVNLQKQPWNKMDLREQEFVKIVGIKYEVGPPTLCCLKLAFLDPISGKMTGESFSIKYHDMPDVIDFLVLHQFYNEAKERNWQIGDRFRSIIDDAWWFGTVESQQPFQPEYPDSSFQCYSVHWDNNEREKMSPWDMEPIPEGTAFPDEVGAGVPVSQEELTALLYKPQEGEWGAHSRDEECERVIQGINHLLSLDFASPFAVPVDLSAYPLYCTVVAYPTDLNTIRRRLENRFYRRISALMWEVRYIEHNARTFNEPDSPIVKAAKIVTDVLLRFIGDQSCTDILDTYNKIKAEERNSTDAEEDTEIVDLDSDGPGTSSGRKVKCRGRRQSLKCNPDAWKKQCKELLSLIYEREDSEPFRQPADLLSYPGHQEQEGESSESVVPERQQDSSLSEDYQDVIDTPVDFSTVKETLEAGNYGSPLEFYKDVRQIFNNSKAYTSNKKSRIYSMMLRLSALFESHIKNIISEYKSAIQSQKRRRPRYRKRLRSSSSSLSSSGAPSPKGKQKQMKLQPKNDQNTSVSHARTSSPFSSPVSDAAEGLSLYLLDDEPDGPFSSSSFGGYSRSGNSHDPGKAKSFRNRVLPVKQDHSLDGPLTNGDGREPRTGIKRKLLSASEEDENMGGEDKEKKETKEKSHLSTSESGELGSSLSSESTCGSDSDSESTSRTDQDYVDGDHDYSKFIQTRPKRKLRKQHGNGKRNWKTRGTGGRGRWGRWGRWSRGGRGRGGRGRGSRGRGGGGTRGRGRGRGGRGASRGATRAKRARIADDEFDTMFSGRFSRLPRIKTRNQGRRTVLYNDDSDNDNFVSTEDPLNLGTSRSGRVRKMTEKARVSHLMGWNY
Kelch repeat and BTB domain-containing protein 7, KBTB7 (human), sequence (Q8WVZ9 whole entry, the tested form may be a part): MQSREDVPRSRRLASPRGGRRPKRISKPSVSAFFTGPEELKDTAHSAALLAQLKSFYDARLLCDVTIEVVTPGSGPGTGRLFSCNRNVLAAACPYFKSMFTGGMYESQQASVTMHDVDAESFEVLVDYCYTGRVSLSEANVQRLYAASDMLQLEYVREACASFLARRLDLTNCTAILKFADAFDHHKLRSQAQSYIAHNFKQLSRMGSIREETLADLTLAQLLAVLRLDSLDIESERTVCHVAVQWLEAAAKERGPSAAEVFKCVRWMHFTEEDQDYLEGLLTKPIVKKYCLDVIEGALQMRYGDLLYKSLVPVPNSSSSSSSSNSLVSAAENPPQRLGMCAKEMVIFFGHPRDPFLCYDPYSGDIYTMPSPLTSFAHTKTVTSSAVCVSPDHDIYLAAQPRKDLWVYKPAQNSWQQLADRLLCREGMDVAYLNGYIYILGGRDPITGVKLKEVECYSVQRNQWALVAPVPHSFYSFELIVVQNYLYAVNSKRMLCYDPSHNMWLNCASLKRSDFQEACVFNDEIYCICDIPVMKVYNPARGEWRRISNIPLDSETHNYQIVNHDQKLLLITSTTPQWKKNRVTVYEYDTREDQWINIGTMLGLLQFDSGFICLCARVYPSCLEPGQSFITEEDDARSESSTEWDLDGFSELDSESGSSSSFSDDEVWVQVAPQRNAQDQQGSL

In the case of Flag-SAKS1 (from UniProt Q04323 1-297), the abundance factor (AF) [1] is reported as 2.9, the sequence count [1] is reported as 2 and the spectrum count [1] is reported as 2. The abundance factor (AF) (Cullin 1 (human) [2]) was 6.5, the sequence count (Cullin 1 (human) [2]) was 5 and the spectrum count (Cullin 1 (human) [2]) was 7. For the same substance, the abundance factor (AF) [3] was 2.1, the sequence count [3] was 2 and the spectrum count [3] was 2. It also gave an abundance factor (AF) [4] of 3.5, a sequence count [4] of 2 and a spectrum count [4] of 3. For the same substance, the abundance factor (AF) [5] was 1.1, the sequence count [5] was 2 and the spectrum count [5] was 2. It also gave an abundance factor (AF) (Cullin 1 (human) [6]) of 1.5, a sequence count (Cullin 1 (human) [6]) of 2 and a spectrum count (Cullin 1 (human) [6]) of 3. For the same substance, the abundance factor (AF) (Praja 2 (human)) was 1.1, the sequence count (Praja 2 (human)) was 2 and the spectrum count (Praja 2 (human)) was 2.

Flag-UBXD7 (from UniProt O94888 1-489) gave an abundance factor (AF) [7] of 2.2, a sequence count [7] of 3 and a spectrum count [7] of 4. The abundance factor (AF) [8] was 2.1, the sequence count [8] was 2 and the spectrum count [8] was 2. The abundance factor (AF) [9] was 1.4, the sequence count [9] was 2 and the spectrum count [9] was 2. It also gave an abundance factor (AF) (Cullin 4A (human)) of 9.8, a sequence count (Cullin 4A (human)) of 5 and a spectrum count (Cullin 4A (human)) of 6. It also gave a sequence count (Cullin 4B (human)) of 7, a spectrum count (Cullin 4B (human)) of 9 and an abundance factor (AF) (Elongin B (human)) of 16. The sequence count (Elongin B (human)) was 2, the spectrum count (Elongin B (human)) was 2 and the abundance factor (AF) [10] was 9.3. It also gave a sequence count [10] of 2, a spectrum count [10] of 3 and an abundance factor (AF) (SKP1 (human)) of 30.7. For the same substance, the sequence count (SKP1 (human)) was 3, the spectrum count (SKP1 (human)) was 4 and the abundance factor (AF) (Cullin 3 (human)) was 8.4. The sequence count (Cullin 3 (human)) was 16, the spectrum count (Cullin 3 (human)) was 30 and the abundance factor (AF) [11] was 2.8. It also gave a sequence count [11] of 8, a spectrum count [11] of 8 and an abundance factor (AF) [12] of 2.1. For the same substance, the sequence count [12] was 2 and the spectrum count [12] was 2.

Work on Flag-UBXD8 (from UniProt Q96CS3 1-445) yielded an abundance factor (AF) (Elongin C (human)) of 7, a sequence count (Elongin C (human)) of 2 and a spectrum count (Elongin C (human)) of 5. For the same substance, the abundance factor (AF) [13] was 0.8, the spectrum count [13] was 3 and the abundance factor (AF) [14] was 0.9. The sequence count [14] was 2, the spectrum count [14] was 2 and the abundance factor (AF) [15] was 1.1. It also gave a spectrum count [15] of 3, a sequence count (endogenous UFD1 (human)) of 7 and a sequence coverage (endogenous UFD1 (human)) of 29.4%. The spectrum count (endogenous UFD1 (human)) was 82.
